Biological target: IGF-1 receptor (UniProt P08069)
Assay: cell-based or functional assay

UniProt P08069, sequence (P08069 31-1367): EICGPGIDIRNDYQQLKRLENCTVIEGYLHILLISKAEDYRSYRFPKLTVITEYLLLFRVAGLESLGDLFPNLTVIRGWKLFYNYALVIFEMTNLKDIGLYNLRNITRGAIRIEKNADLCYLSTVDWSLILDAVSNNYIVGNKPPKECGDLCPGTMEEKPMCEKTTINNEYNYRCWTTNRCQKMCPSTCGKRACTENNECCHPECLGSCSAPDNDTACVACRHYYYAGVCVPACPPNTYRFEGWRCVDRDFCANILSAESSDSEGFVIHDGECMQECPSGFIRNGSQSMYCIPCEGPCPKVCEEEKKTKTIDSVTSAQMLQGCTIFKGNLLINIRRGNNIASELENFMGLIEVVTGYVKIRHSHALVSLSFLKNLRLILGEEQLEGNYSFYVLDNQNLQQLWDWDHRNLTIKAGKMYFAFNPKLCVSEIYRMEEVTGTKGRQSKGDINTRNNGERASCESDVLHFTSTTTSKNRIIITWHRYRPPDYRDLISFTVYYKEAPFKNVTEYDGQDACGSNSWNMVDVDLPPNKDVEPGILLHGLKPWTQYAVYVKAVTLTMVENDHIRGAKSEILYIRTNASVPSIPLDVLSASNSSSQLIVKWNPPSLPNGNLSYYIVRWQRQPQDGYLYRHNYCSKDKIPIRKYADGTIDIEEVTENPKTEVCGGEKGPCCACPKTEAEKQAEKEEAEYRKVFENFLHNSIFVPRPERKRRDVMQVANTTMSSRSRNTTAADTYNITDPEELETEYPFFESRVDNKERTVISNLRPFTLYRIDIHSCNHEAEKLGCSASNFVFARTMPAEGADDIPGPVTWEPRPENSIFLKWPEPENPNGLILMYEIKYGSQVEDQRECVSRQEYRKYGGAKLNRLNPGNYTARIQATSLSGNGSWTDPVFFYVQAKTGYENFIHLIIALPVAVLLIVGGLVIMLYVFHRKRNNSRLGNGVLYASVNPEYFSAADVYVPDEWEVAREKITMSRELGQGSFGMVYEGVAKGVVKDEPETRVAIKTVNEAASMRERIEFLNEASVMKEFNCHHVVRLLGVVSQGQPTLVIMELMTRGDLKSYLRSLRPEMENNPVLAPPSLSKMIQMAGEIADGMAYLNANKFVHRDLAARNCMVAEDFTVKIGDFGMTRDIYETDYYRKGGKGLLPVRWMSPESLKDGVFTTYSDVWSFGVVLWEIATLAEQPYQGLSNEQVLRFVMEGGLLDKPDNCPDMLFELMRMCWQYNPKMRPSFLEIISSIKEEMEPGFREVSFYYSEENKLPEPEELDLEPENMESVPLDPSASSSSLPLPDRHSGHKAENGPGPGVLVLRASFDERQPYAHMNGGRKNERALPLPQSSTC

- pAKT EC50 (concentration needed to achieve the half maximal level of pAKT signaling), healthy iPSC-derived cardiomyocytes, pAKT ELISA: 0.73
Substance: IGF-1 (LR3) (ligand)
